# Legend:
# [1] = target: the molecule itself; assay: crystal structure; uncleaved PaPepA, sitting drop, 20 °C, PEG 3350 and ammonium nitrate; three crystal forms: apo, with MnCl2, with bestatin and MnCl2
# [2] = target: the molecule itself; assay: dynamic light scattering; PaPepA in solution; conditions not shown (Figure S14)
Protein,stoichiometry N [1],stoichiometry N [2]
"PepA from P. aeruginosa strain PA14 (PaPepA), uncleaved His6-tagged protein used for crystallography (enzyme, Pseudomonas aeruginosa strain PA14, Leucine aminopeptidase PepA, Pseudomonas aeruginosa strain PA14, PA14_14470, UniProt Q02RY8; also called leucine aminopeptidase from Pseudomonas aeruginosa; uncleaved PaPepA; source: E. coli BL21(DE3), purified (HisTrap FF nickel column, dialysed; not TEV-cleaved); not shown: His6 (followed by a linker and a TEV protease cleavage site), N-terminal, kept) MEFLVKSVRPETLKTATLVLAVGEGRKLGASAKAVDDATGGAISAVLKRGDLAGKVGQTLLLQSLPNLKAERVLLVGAGKERELGDRQYRKLASAVLSTLKGLAGADAALALGDLAVKGRGAHAKARLLVETLADGLYVFDRYKSQKAEPLKLKKLTLLADKADSAAVEQGSKEAQAIANGMALTRDLGNLPPNVCHPTFLGEQAKGLAKEFKSLKVEVLDEKKLRELGMGSFLAVAQGSDQPPRLIILQYNGAKKDQAPHVLVGKGITFDTGGISLKPGLGMDEMKFDMCGAASVFGTFRAVLELQLPINLVGLLACAENMPSGGATRPGDIVTTMSGQTVEILNTDAEGRLVLCDALTYAERFKPQSVIDIATLTGACIVALGSNTSGLMGNNEALVRQLLKAGEFADDRAWQLPLFDEYQEQLDSPFADIANIGGPKAGTITAGCFLSRFAKKYHWAHLDIAGTAWISGGKDKGATGRPVPLLTQYLLERAK",6,
"PepA from P. aeruginosa strain PA14 (PaPepA), protein used for dynamic light scattering (enzyme, Pseudomonas aeruginosa strain PA14, Leucine aminopeptidase PepA, Pseudomonas aeruginosa strain PA14, PA14_14470, UniProt Q02RY8; probably the cleaved one; also called leucine aminopeptidase from Pseudomonas aeruginosa; source: E. coli BL21(DE3), purified (HisTrap FF nickel column)) MEFLVKSVRPETLKTATLVLAVGEGRKLGASAKAVDDATGGAISAVLKRGDLAGKVGQTLLLQSLPNLKAERVLLVGAGKERELGDRQYRKLASAVLSTLKGLAGADAALALGDLAVKGRGAHAKARLLVETLADGLYVFDRYKSQKAEPLKLKKLTLLADKADSAAVEQGSKEAQAIANGMALTRDLGNLPPNVCHPTFLGEQAKGLAKEFKSLKVEVLDEKKLRELGMGSFLAVAQGSDQPPRLIILQYNGAKKDQAPHVLVGKGITFDTGGISLKPGLGMDEMKFDMCGAASVFGTFRAVLELQLPINLVGLLACAENMPSGGATRPGDIVTTMSGQTVEILNTDAEGRLVLCDALTYAERFKPQSVIDIATLTGACIVALGSNTSGLMGNNEALVRQLLKAGEFADDRAWQLPLFDEYQEQLDSPFADIANIGGPKAGTITAGCFLSRFAKKYHWAHLDIAGTAWISGGKDKGATGRPVPLLTQYLLERAK",,6

# Reference: paper PMC10666288, “Unveiling the Catalytic Mechanism of a Processive Metalloaminopeptidase” (Biochemistry, 2023)
